Ends that are not written are not given here. PEG = not defined here
Target: BRD-containing DNA-PKcs fragment (aa1878-2700) (UniProt P78527 1878-2700)
Assay: pull-down

Chain of BRD-containing DNA-PKcs fragment (aa1878-2700) (P78527 1878-2700): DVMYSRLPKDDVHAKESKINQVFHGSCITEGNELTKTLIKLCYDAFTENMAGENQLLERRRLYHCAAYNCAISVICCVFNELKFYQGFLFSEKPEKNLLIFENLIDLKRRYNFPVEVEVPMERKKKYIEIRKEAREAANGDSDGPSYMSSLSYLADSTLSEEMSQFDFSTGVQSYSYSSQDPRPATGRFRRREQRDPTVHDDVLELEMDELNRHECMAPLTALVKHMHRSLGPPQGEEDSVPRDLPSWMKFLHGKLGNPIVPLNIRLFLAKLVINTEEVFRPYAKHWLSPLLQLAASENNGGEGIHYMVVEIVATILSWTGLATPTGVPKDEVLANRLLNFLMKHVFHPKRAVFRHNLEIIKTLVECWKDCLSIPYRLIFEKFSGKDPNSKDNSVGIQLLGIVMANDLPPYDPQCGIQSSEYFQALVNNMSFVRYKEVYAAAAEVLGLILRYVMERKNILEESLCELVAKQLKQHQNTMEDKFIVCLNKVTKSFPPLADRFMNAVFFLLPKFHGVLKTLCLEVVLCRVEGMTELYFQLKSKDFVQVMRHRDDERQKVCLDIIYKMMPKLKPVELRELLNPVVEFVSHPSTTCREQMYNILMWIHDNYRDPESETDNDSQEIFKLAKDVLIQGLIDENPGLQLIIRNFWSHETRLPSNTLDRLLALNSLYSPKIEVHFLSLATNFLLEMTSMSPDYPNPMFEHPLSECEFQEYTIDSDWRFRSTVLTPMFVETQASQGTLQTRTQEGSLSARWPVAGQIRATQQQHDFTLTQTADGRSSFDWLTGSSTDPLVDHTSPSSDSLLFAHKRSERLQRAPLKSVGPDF

binding result: binds
B1: H2AX K5ac-containing peptide (peptide)
peptide: SGRGK(Ac)TGGKARAKAKSR-{PEG-biotin}
modifications: reading uncertain
